According to patent US10444224B2, “Method for RNA detection and quantification” (Cornell University, priority 2011, dated 2019):
Values joined by “and” are separate entries in the source; they are usually repeats but may differ in a detail not shown here. Equal entries are not always repeated. “Also recorded” adds a separate entry of the source.

Tests used:
[1] = system: HEK293 cells; test: Nonspecific fluorescence activation by cellular components; type: cell-based; conditions: 10 μM, 30 min
Experimental: HEK293 cells were grown on PLL-coated glass-bottom dishes (MatTek) in DMEM plus 10% FBS to ˜80% confluency. Media was removed, cells were washed twice with microscopy media (20 mM HEPES pH 7.4, 119 mM NaCl, 5 mM KCl, 2 mM CaCl2, 2 mM MgCl2, and 30 mM glucose) and then incubated for 30 min with microscopy media plus vehicle (0.2% DMSO) or 10 μM N,N-Dimethyl-4′-nitro-4-stilbenamine, thiazole orange, malachite green, or DFHBI. Live fluorescence images were then taken with a CoolSnap HQ2 CCD camera through a 40× oil objective mounted on a Nikon TE2000 microscope and analyzed with the NIS-Elements software.

[2] = system: HEK293 cells; test: Cytotoxicity assay after illumination (MTT); type: cell-based; conditions: 10 μM fluorophore, 10 min illumination
Experimental: HEK293 cells were grown on PLL-coated glass-bottom dishes as indicated above. At ˜80% confluency, the media was removed and cells were incubated for 30 min with fresh media alone, media plus vehicle (0.2% DMSO) or media plus 10 μM DMHBI, DFHBI or MG. Cells were then illuminated for 10 min at 37° C. with a Nikon Intensilight C-HGFIE 130 W mercury lamp with FITC (DMHBI and DFHBI) or Cy5 (malachite green) filter sets (Chroma Technology) on an inverted epifluorescence microscope. Control cells were illuminated for 10 min under identical conditions but in the absence of any fluorophore. Cells were then washed several times with media to remove fluorophores and assayed for mitochondrial activity with MTT (3-[4,5-dimethylthiazol-2-yl]-2,5-diphenyltetrazolium bromide) based cell proliferation kit (Roche) and prepared according to manufacturers instructions. MTT absorbance readings were performed at 550 nm with 650 nm absorbance used for background subtraction. Values are reported as percent change in viability compared to control samples (illumination without fluorophore or without vehicle) and each condition was repeated in triplicate and averaged.

[3] = system: endogenous ADP levels in living E. coli cells; test: Live cell imaging of ADP dynamics with the ADP sensor; type: cell-based; conditions: 200 μM DFHBI
Experimental: BL21-A Star E. coli cells (Invitrogen) were transformed with 40 ng of plasmid DNA expressing the tRNA-sensor chimeras in pET28c under the control of a T7 promoter. Cells were plated, grown overnight and single colonies were picked for inoculation in Luria Broth containing kanamycin (LB-Kan). At OD600=0.4, 1 mM of IPTG was added to the culture and shaking was continued at 37° C. for more 2 hours. 100 uL of culture was then removed, spun down to pelleted the culture, and resuspended in 2 mL of pH 6.0 M9 minimal media. A 200 μl aliquot of resuspended culture was then plated on poly-L-lysine (PLL)-coated 24-well glass-bottom dishes (MatTek) and incubated for 45 minutes at 37° C. Adherent cells were washed twice and then incubated with 200 μM DFHBI in pH 6.0 M9 minimal media for 45 min at 37° C. Cells then were washed twice and incubated with M9 media containing 200 μM DFHBI and the appropriate carbon source (2 mg/ml glucose, 6.65 mg/ml potassium acetate, 4.05 mg/ml glycerol or 5.51 mg/ml succinate). Live fluorescence images were taken with a CoolSnap HQ2 CCD camera through a 60× oil objective mounted on a Nikon TE2000 microscope and analyzed with the NIS-Elements software. The filter set used was a sputter coated filter cube with excitation filter 470/40, dichroic mirror 495 (long pass) and emission filter 525/50 (Chroma Technology).
Cells transformed with ADP sensor were grown overnight in LB-Kan. Cultures were then diluted to OD600=0.1 in 200 mL LB-Kan and grown to OD600=0.4. Cells were then induced for 2 hours with 1 mM IPTG at 37° C. with constant shaking. The entire culture was split in two samples and then placed in a centrifuged for 5 min at 1,000×g. Pellets were then washed once and resuspended in […] of M9 media containing 200 μM DFHBI and either 2.00 mg/ml glucose or 6.68 mg/ml potassium acetate as the carbon source. […] Aliquots of culture were removed every 30 min, pelleted, lysed, and ADP levels were measured with an ADP Fluorometric Assay Kit (Abcam) according to manufacturer's instructions.

[4] = Spinach-based RNA sensor fluorescence in response to ADP; type: biochemical
Experimental: Dose-response curves for each sensor in response to the target metabolite were determined by measuring the increase in fluorescence as a function of increasing target concentration in the presence of a fixed concentration of RNA sensor (10-50 nM) and a fixed concentration of fluorophore (10 μM). Curves were determined using a nonlinear regression analysis in Prism software and matched by least squares fitting to a standard dose-response model for 1:1 complexation.
The optimal sensors were chosen based on their low fluorescence in the absence of metabolite and the relative increase in fluorescence upon binding to the metabolite.

[5] = Sensor activation rate, ADP sensor; type: biochemical; conditions: 1 mM ADP, 37° C.
Experimental: A solution of RNA sensor (1 μM) and DFHBI (10 μM) was incubated with continuous stirring at 37° C. in a buffer containing 40 mM HEPES pH 7.4, 125 mM KCl and 1 mM MgCl2. The target metabolite (1 mM) was then rapidly added to the stirring solutions and fluorescence emission was recorded over a 15 min period under continuous illumination at 37° C. using the following instrumental parameters: excitation wavelength, 460 nm; emission wavelength, 500 nm; increment of data point collection, 0.05 s; slit widths, 10 nm. The fluorescence increase was then plotted against exposure time and normalized to the maximum intensity of each fluorophore.

[6] = Truncation and mutagenesis of 24-2, DFHBI fluorescence; type: biochemical; conditions: with DFHBI
Experimental: Secondary structure prediction was performed using Mfold online software (Zuker, “Mfold Web Server for Nucleic Acid Folding and Hybridization Prediction,” Nucl. Acids Res. 31(13): 3406-3415 (2003), which is hereby incorporated by reference in its entirety). Mutated and truncated RNAs were created by ordering single stranded DNA templates (Integrated DNA Technologies) with the desired mutations or truncations and PCR amplifying these sequences to create double stranded DNA templates using primers which included a 5′ T7 promoter sequence. PCR products were then purified with PCR purification columns (Qiagen) and used as templates for in vitro T7 transcription reactions (Epicentre).

CC1=NC(=Cc2cc(F)c(O)c(F)c2)C(=O)N1C [DFHBI, 4-(3,5-difluoro-4-hydroxybenzylidene)-1,2-dimethyl-imidazol-5-one]
nonspecific fluorescence activation upon incubation with cells [1]: does not exhibit nonspecific fluorescence activation | cytotoxicity / phototoxicity upon illumination [2]: negligible phototoxicity

B1: ADP sensor: Spinach-based turn-on RNA sensor for ADP, transducer stem 3 (nucleic acid)
chain: GACGCGACUGAAUGAAAUGGUGAAGGACGGGUCCAGCACGAGGGGGAAACCCCGGACAAUCAGACACGGUGCUUGUUGAGUAGAGUGUGAGCUCCGUAACUAGUCGCGUC
modifications: listed as RNA, chemistry not given here
sensor fluorescence after switch to succinate or glycerol [3]: did not substantially increase fluorescence | increase in sensor fluorescence over baseline after switch from glucose to acetate media ([3]; by 3 hr): ~6 fold | increase in sensor fluorescence over baseline after switch from glucose to acetate media ([3]; within 30 min): 1.8 fold | increase in fluorescence in the presence of ADP ([4]; 10 μM DFHBI, 1 mM ADP, versus no ADP): 20 fold and 18 fold | molecular discrimination: activation by ATP, AMP, cAMP, NAD+ ([4]; 1 mM competing molecules): negligibly activated; also recorded: specific for ADP | EC50 ([4]; dose-response, 10 μM fluorophore, read-out: half-maximal fluorescence (EC50), ADP): 270 µM | time to increase in fluorescence after ADP addition [5]: less than 10 s

B2: 24-2-min: final truncated (minimized) 24-2 sequence (nucleic acid)
chain: GACGCGACCGAAAUGGUGAAGGACGGGUCCAGUGCUUCGGCACUGUUGAGUAGAGUGUGAGCUCCGUAACUGGUCGCGUC
modifications: listed as RNA, chemistry not given here
fluorescence relative to full-length 24-2 [6]: ~95%
